Key:
Assay in all cases: pull-down
(His)9-tagged srs2 1–890 = molecular target: T1, (His)9-tagged srs2 1–890 (S. cerevisiae, UniProt P12954 1-890)
T1 sequence: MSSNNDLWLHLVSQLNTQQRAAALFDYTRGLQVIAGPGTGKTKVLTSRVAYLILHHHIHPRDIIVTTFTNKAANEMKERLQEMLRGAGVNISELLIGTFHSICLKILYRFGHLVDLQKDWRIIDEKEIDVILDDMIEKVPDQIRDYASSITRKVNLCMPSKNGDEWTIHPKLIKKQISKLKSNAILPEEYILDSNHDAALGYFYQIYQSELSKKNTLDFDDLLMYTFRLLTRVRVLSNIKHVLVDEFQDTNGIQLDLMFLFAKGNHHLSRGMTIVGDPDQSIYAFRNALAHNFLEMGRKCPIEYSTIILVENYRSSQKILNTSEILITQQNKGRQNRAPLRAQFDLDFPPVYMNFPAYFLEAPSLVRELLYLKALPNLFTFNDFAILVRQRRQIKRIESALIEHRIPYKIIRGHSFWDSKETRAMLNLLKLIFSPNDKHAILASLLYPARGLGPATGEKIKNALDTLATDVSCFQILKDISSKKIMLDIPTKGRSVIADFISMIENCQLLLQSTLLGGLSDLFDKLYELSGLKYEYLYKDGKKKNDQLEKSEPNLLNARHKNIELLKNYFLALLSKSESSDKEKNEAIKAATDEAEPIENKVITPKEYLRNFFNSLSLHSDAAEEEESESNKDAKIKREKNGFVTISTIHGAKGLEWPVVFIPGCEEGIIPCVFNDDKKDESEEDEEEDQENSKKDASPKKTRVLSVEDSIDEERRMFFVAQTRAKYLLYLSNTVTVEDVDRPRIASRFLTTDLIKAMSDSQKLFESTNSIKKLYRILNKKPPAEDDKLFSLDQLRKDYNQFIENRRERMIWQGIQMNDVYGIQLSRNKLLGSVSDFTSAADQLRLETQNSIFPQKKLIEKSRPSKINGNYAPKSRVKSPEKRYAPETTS

[1] = molecular target: T2, (His)9-tagged full length Srs2 (S. cerevisiae, UniProt P12954 1-1174)
T2 sequence: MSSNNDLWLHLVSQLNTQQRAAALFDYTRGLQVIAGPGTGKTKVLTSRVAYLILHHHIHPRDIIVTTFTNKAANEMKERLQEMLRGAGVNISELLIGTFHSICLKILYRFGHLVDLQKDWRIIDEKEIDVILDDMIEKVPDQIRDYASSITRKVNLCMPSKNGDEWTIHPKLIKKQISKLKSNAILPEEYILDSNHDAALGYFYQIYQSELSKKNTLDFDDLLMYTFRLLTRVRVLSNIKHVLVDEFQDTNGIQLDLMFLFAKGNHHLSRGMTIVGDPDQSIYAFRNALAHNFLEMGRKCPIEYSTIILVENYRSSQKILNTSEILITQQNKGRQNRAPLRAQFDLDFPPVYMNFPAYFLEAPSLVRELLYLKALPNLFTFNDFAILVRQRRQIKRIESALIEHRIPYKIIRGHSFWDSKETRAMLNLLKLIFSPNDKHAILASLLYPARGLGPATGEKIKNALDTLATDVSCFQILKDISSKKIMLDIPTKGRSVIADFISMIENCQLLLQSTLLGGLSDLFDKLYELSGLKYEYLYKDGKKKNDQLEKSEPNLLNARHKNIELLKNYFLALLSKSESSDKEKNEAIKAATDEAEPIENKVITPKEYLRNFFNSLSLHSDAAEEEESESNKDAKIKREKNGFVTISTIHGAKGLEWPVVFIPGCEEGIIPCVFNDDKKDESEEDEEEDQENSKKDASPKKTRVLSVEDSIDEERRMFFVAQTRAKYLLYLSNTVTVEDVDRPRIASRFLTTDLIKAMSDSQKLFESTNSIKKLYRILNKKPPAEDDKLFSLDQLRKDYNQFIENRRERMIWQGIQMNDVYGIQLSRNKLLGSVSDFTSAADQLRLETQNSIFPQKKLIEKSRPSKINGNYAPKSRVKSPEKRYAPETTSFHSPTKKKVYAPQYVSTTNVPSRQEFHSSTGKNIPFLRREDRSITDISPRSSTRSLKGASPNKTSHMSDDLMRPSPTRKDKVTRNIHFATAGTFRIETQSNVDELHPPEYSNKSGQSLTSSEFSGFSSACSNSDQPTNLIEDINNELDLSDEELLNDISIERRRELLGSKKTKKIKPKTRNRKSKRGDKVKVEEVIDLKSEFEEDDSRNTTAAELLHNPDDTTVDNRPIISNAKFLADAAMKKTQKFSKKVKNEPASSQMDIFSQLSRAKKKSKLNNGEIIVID

(His)9-tagged srs2 1–998 = molecular target: T3, (His)9-tagged srs2 1–998 (S. cerevisiae, UniProt P12954 1-998)
T3 sequence: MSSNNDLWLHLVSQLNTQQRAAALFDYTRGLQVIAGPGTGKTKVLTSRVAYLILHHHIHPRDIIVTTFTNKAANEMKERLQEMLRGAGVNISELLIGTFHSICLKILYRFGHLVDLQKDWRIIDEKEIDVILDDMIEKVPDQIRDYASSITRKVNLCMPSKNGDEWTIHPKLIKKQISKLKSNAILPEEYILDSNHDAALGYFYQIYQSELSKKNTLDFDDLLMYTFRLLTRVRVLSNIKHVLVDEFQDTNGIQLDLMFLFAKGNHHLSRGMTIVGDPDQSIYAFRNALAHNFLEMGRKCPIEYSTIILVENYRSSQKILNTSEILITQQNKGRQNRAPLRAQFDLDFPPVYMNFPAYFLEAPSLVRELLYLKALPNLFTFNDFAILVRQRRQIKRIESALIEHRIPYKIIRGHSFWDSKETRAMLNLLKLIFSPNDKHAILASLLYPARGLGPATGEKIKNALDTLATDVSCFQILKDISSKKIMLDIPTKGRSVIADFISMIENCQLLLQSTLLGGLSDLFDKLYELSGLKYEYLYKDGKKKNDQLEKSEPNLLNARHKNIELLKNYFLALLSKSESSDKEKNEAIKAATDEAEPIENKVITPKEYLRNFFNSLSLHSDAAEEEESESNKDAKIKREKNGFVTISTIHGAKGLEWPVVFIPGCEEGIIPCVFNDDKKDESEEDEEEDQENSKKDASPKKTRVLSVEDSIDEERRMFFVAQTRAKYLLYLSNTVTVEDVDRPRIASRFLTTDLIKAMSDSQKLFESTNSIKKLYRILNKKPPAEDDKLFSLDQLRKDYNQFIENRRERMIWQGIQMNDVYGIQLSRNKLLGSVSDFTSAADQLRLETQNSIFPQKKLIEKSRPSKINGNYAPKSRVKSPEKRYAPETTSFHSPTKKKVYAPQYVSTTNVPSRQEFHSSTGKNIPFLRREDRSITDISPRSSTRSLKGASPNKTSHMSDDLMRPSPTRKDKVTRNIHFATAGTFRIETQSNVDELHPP

(His)9-tagged srs2 1–910 = molecular target: T4, (His)9-tagged srs2 1–910 (S. cerevisiae, UniProt P12954 1-910)
T4 sequence: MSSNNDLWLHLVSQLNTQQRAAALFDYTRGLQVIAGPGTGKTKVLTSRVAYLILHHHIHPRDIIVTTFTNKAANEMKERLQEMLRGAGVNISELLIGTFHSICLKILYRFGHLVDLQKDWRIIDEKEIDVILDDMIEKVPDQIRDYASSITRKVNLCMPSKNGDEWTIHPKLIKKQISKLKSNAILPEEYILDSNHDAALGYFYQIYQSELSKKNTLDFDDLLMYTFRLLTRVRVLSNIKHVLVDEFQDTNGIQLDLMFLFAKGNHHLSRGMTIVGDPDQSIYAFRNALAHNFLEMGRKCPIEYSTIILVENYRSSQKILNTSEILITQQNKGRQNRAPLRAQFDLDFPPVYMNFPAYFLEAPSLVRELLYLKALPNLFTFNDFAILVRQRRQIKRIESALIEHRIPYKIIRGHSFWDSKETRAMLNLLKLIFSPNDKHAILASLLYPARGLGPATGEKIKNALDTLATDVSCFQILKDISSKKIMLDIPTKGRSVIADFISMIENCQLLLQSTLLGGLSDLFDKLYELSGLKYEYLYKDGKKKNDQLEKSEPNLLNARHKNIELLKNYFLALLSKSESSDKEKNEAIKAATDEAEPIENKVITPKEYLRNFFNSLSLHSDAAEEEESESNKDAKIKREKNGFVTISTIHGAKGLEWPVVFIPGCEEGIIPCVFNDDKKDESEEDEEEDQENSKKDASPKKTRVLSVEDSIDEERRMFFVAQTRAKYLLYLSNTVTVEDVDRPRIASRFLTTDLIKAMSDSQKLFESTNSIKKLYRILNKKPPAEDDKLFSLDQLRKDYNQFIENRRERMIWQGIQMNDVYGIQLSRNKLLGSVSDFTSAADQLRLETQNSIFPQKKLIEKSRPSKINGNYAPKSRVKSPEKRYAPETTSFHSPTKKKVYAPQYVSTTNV

Measured: binding result

B1: Rad51 (natural protein)
chain: MSQVQEQHISESQLQYGNGSLMSTVPADLSQSVVDGNGNGSSEDIEATNGSGDGGGLQEQAEAQGEMEDEAYDEAALGSFVPIEKLQVNGITMADVKKLRESGLHTAEAVAYAPRKDLLEIKGISEAKADKLLNEAARLVPMGFVTAADFHMRRSELICLTTGSKNLDTLLGGGVETGSITELFGEFRTGKSQLCHTLAVTCQIPLDIGGGEGKCLYIDTEGTFRPVRLVSIAQRFGLDPDDALNNVAYARAYNADHQLRLLDAAAQMMSESRFSLIVVDSVMALYRTDFSGRGELSARQMHLAKFMRALQRLADQFGVAVVVTNQVVAQVDGGMAFNPDPKKPIGGNIMAHSSTTRLGFKKGKGCQRLCKVVDSPCLPEAECVFAIYEDGVGDPREEDE
binds: all assays above

From PMC2777448 (Nucleic Acids Research, 2009)
